In publication PMC6124603 (Journal of Visualized Experiments : JoVE, 2018):

Key:
[1] = biological target: T1, CD22 extracellular domain (CD22 ECD) produced in HEK293F cells (Homo sapiens, UniProt P20273); test: ITC
[2] = biological target: CD22 construct with smaller N-linked glycans (human) (UniProt P20273); test: BLI
[3] = biological target: T1, CD22 extracellular domain (CD22 ECD) …; test: BLI

T1 sequence (P20273 20-687): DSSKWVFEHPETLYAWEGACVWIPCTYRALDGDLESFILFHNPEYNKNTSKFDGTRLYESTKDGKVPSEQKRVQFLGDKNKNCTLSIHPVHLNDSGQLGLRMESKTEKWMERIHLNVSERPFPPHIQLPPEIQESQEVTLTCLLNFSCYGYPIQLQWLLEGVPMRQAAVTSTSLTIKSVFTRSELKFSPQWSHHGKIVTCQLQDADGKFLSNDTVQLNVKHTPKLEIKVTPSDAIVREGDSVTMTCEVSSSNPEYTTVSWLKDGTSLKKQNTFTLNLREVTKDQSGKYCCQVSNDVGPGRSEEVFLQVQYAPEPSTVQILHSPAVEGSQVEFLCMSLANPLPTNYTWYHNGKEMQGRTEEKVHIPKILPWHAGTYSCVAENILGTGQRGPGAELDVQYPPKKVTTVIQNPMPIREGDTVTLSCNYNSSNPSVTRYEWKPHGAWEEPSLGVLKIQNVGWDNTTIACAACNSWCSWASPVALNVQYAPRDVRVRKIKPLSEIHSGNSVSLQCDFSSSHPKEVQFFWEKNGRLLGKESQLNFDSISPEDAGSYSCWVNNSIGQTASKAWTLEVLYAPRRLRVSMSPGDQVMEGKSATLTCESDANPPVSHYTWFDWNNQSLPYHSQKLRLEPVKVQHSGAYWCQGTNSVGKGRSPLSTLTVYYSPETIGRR
CD22 construct with smaller N-linked glycans (human), sequence (P20273 20-687): as above

B1: epratuzumab Fab (Fab, V domains shown)
VH: QVQLVQSGAEVKKPGSSVKVSCKASGYTFTSYWLHWVRQAPGQGLEWIGYINPRNDYTEYNQNFKDKATITADESTNTAYMELSSLRSEDTAFYFCARRDITTFYWGQGTTVTVSS
VL: DIQLTQSPSSLSASVGDRVTMSCKSSQSVLYSANHKNYLAWYQQKPGKAPKLLIYWASTRESGVPSRFSGSGSGTDFTLTISSLQPEDIATYYCHQYLSSWTFGGGTKLEIK
Kd [1]: 188 nM | Kd [2]: 24 nM | Kd [3]: 327 nM
